In the supplement of paper PMC6379048:

Assays:
Assay in all cases: Kd (EC50 corrected by depletion factor)
[1] = biological target: T1, TFIP11 (UniProt Q9UBB9)
T1 sequence: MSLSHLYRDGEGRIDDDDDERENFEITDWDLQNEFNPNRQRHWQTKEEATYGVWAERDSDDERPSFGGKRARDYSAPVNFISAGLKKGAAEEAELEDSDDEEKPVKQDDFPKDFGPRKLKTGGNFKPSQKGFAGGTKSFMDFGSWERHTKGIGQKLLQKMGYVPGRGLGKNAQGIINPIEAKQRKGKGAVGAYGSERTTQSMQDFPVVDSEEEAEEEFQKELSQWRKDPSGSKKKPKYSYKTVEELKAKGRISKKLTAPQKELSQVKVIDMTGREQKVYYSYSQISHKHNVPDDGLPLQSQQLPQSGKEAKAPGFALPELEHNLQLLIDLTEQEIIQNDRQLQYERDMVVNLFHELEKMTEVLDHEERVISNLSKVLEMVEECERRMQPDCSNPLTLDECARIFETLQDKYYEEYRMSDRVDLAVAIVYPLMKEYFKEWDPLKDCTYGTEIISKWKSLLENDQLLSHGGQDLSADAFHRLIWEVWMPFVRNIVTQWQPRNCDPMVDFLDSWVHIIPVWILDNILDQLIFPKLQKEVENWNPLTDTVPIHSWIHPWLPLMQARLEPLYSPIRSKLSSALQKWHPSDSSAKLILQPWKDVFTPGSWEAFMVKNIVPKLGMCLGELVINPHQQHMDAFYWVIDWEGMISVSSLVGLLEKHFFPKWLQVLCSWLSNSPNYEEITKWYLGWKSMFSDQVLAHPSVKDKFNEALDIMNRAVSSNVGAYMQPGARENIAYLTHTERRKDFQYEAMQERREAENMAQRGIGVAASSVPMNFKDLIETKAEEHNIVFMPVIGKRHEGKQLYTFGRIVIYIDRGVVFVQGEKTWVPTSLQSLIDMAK
Summary of the method: (§1)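 Over three biological replicates and two independent experiments, proteins captured on NHS-Sepharose beads carrying 5′-amino-C6 RNA oligos were quantified by label-free LC-MS/MS and normalised to the control. Capture lasted 30 min at 4°C and followed a 1 h pre-incubation at 4°C of HEK293-FT lysate (2.5 mg protein/well) with the same oligos in free form (0 nM to 30 μM). EC50 was taken from a four-parameter log-logistic fit, and Kd was EC50 corrected by a protein-dependent depletion factor.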

[2] = biological target: T2, ZNF830 (UniProt Q96NB3)
T2 sequence: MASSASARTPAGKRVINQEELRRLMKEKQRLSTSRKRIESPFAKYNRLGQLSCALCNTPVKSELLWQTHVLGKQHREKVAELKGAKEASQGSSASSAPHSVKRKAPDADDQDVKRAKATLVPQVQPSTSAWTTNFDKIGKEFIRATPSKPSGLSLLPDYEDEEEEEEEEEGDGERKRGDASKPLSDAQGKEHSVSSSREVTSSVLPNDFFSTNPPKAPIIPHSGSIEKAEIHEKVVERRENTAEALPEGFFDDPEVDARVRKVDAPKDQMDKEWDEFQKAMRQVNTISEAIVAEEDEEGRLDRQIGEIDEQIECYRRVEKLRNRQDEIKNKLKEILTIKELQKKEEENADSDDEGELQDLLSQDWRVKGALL
Summary of the method: as §1

[3] = biological target: T3, FUBP3 (UniProt Q96I24)
T3 sequence: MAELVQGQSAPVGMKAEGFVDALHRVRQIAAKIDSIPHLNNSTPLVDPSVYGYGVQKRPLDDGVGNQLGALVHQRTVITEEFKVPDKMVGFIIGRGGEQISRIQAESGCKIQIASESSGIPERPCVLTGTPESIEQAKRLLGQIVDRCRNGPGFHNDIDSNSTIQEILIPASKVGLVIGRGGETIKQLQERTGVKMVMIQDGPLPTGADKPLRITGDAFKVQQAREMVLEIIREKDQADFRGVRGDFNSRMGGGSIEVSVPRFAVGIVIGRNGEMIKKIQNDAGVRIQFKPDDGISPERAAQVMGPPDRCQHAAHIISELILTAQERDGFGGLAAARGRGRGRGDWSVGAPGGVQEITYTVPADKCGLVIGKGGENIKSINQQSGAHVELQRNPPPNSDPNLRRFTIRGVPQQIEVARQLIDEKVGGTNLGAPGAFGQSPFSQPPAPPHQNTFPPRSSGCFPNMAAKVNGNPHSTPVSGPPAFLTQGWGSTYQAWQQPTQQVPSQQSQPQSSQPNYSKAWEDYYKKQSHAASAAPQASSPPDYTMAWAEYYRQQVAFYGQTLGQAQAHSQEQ
Summary of the method: as §1

[4] = biological target: LSM3 (UniProt P62310)
LSM3, sequence (P62310 whole entry): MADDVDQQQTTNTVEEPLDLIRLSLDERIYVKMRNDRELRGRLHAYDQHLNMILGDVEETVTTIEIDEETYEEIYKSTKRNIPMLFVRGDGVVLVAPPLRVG
Summary of the method: as §1

[5] = biological target: T4, GPATCH3 (UniProt Q96I76)
T4 sequence: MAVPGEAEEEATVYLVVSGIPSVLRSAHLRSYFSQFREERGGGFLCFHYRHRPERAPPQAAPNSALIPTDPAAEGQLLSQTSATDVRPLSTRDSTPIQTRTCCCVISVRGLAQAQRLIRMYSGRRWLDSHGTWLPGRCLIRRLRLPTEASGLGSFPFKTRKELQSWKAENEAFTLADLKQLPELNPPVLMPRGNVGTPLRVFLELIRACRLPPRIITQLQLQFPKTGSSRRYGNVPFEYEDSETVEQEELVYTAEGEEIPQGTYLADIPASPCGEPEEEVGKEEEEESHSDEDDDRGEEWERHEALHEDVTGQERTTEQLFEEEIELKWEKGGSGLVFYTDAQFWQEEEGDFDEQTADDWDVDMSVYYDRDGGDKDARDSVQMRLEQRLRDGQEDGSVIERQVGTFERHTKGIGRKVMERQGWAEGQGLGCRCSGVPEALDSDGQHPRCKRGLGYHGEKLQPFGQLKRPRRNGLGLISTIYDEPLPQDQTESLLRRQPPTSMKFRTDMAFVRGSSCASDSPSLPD
Summary of the method: as §1

[6] = biological target: SLIRP (UniProt Q9GZT3)
Summary of the method: as §1

[7] = biological target: RPS20 (UniProt P60866)
Summary of the method: as §1

## UAUUUAU
[1]
  Kd: 1230 nM
[2]
  Kd: 228 nM
[3]
  Kd: 241 nM
[4]
  Kd: 307 nM
[5]
  Kd: 243 nM

## CUGUCCU
[6]
  Kd: 904 nM
[7]
  Kd: 59.8 nM

## AAUAAA
[1]
  Kd: 569 nM
[2]
  Kd: 379 nM
[6]
  Kd: 393 nM
[3]
  Kd: 245 nM
[7]
  Kd: 2300 nM
[4]
  Kd: 45 nM
[5]
  Kd: 196 nM
